Substitutions are numbered along the chain they refer to.
T1: His-tagged HM1.24 antigen, residues N49-A163 of the extracellular domain (human, UniProt Q10589 49-163)
T1 sequence: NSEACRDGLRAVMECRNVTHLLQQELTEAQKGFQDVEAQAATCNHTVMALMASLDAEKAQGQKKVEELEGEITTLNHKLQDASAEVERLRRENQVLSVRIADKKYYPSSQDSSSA

B1: HM1.24_H0L0_IgG1_WT (antibody, V domains shown)
VH: QVQLQQSGAELARPGASVKLSCKASGYTFTPYWMQWVKQRPGQGLEWIGSIFPGDGDTRYSQKFKGKATLTADKSSSTAYMQLSILAFEDSAVYYCARGLRRGGYYFDYWGQGTTLTVSS
VL: DIVMTQSHKFMSTSVGDRVSITCKASQDVNTAVAWYQQKPGQSPKLLIYSASNRYTGVPDRITGSGSGTDFTFTISSVQAEDLALYYCQQHYSTPFTFGSGTKLEIKR
B2: HM1.24_H0L0 (parent antibody in the flow cytometry screen of Example 3) (antibody, V domains shown)
VH: B1 VH
VL: DIVMTQSHKFMSTSVGDRVSITCKASQDVNTAVAWYQQKPGQSPKLLIYSASNRYTGVPDRITGSGSGTDFTFTISSVQAEDLALYYCQQHYSTPFTFGSGTKLEIK
B3: HM1.24_H1.1 heavy chain variant with HM1.24_L4 light chain (antibody, human IgG1, kappa, V domains shown)
VH: QVQLVQSGAEVKKPGASVKVSCKASGYTFTPYWMQWVRQAPGQGLEWMGSIFPGEGDTRYSQSFQGQVTISADKSISTAYMELSRLRSDDTAVYYCARGLRRGGYYFDYWGQGTLVTVSS
VL: DIVMTQSPLSLPVTLGQPASISCKASQDVNTAVAWYLQKPGKSPKLLIYSASNRYTGVPDRITGSGSGTDFTLKISRVEAEDVGVYYCQQHYSTPFTFGSGTKLEIKR
B4: HM1.24_H1L2 (antibody, human IgG1, kappa, V domains shown)
VH: B3 VH with E55D
VL: DIVMTQSPSSLSASVGDRVTITCQASQDVNTAVAWYQQKPDQSPKLLIYSASNRYTGVPDRITGSGSGTDFTLTISSLQAEDVAVYYCQQHYSTPFTFGSGTKLEIKR
B5: HM1.24_H1.4 heavy chain variant with HM1.24_L4 light chain (antibody, human IgG1, kappa, V domains shown)
VH: B3 VH with E55D, G56A
VL: B3 VL
B6: HM1.24_H1.3 heavy chain variant with HM1.24_L4 light chain (antibody, human IgG1, kappa, V domains shown)
VH: B3 VH with E55D, G56S
VL: B3 VL
B7: HM1.24_H2.1 heavy chain variant with HM1.24_L4 light chain (antibody, human IgG1, kappa, V domains shown)
VH: EVQLVESGGGLVKPGGSLRLSCAASGYTFTPYWMQWVRQAPGKGLEWMGSIFPGEGDTRYSQSFQGQVTISADKSISTAYMELSSLRSEDTAVYYCARGLRRGGYYFDYWGQGTLVTVSS
VL: B3 VL
B8: HM1.24_H1.2 heavy chain variant with HM1.24_L4 light chain (antibody, human IgG1, kappa, V domains shown)
VH: B3 VH with E55S
VL: B3 VL
B9: HM1.24_H2.4 heavy chain variant with HM1.24_L4 light chain (antibody, human IgG1, kappa, V domains shown)
VH: B7 VH with E55D, G56A
VL: B3 VL
B10: HM1.24_H2.3 heavy chain variant with HM1.24_L4 light chain (antibody, human IgG1, kappa, V domains shown)
VH: B7 VH with E55D, G56S
VL: B3 VL
B11: HM1.24_H2L2 (antibody, human IgG1, kappa, V domains shown)
VH: B7 VH with E55D
VL: B4 VL

Columns and labels:
[1] = target: T2, Human HM1.24 on RPMI 8226 multiple myeloma cells (human, UniProt Q10589 1-161); experiment: flow cytometry on RPMI 8226 multiple myeloma cells, R-PE anti-human IgG F
[2] = target: T2, Human HM1.24 on RPMI 8226 multiple …; experiment: flow cytometry on HM1.24+ RPMI 8226 cells
[3] = target: T1, His-tagged HM1.24 antigen, residues …

T2 sequence (Q10589 1-161 limits assumed): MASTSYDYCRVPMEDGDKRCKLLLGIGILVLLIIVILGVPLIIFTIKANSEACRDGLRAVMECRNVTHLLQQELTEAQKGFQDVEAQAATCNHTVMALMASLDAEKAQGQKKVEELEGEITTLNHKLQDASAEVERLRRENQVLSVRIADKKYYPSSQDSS

| Binder | binding result [3] | also measured |
| --- | --- | --- |
| B1 |  | binding result [1]: binds |
| B2 |  | binding result [2]: binds |
| B3 | binds |  |
| B4 |  | binding result [2]: binds |
| B5 | binds |  |
| B6 | binds |  |
| B7 | binds |  |
| B8 | binds |  |
| B9 | binds |  |
| B10 | binds |  |
| B11 |  | binding result [2]: binds |
